Consider one molecule from US20220204601A1 (ADEL, published 2022).

Experiment [1] deals with T1, K280-ac protein fragment (human).
T1 construct: also called mAC
T1 peptide: VQIINK(Ac)KLDLSN
Briefly: BLI, Octet K2; antibody fixed on AR2G biosensor, K280-ac fragment in solution. The protocol:
(§1) An affinity between the K280-ac protein fragment prepared in Preparation Example 1 and the ADEL-Y01m antibody prepared in Preparation Example 2 was measured through the Octet® K2 System (Fortebio).
(§2) The ADEL-Y01m antibody was fixed on AR2G biosensor according to the manufacturer's manual. The surface of the biosensor was hydrated with water for 10 minutes, and then activated using a mixture of 20 mM 1-ethyl-3-[3-dimethylaminopropyl] carbodiimide hydrochloride (EDC) and 10 mM N-hydroxysulfosuccinimide (s-NHS). The ADEL-Y01m antibody was fixed on the activated biosensor using 10 mM sodium acetate buffer (pH 5.0) and quenched with 1M ethanol amine (pH 8.0) for 5 minutes. The biosensor on which the ADEL-Y01m antibody is fixed was immersed in 1×PBS buffer (pH 7.4) for 60 seconds, to establish a baseline. Then, the biosensor was immersed for 60 seconds in wells containing different concentrations of the K280-ac protein fragment (antigen) or BSA-bound peptide. Thereafter, the biosensor was immersed again in 1×PBS buffer (pH 7.4) for 10 minutes so that dissociation occurs. The experimental data were evaluated by Octet Data Analysis (SW version: 9.0.0.10).
(Biolayer interferometry detects binding as a change in optical thickness at a sensor tip.)

Experiment [2] concerns the target T1, K280-ac protein fragment. As to the kind of experiment: Octet K2 system, antibody fixed on AR2G biosensor, antigen in solution. The method, then:
as §1, §2

The target in another experiment is T2, Tau K280A protein (human, UniProt P10636 2-758).
T2 construct: Tau protein with lysine 280 replaced by alanine, not acetylated
T2 sequence (P10636 other isoform, or with tags, fused parts or gaps K280A K280A limits assumed): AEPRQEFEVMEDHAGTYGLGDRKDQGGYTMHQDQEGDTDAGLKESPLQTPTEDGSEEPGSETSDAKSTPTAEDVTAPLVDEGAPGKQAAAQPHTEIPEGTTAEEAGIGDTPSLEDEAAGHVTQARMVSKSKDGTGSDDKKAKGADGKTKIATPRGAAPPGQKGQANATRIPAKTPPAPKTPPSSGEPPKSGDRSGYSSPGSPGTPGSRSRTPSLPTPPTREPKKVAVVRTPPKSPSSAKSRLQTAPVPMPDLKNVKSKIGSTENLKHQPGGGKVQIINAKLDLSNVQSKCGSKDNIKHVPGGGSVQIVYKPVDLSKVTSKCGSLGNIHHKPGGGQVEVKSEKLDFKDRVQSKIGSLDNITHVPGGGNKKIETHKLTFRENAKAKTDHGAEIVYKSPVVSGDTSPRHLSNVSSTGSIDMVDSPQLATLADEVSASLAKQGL
Briefly: western blot. The protocol:
(§3) In order to identify specific binding of the ADEL-Y01m antibody prepared in Preparation Example 2 to acetylated tau protein, the wild-type tau protein and the tau protein (Tau K280A) in which the 280th amino acid lysine is replaced with alanine were acetylated in vitro. Here, acetylation of the wild-type Tau protein and the Tau K280A protein was performed in the same manner as in the preparation method of the acetylated K18 protein fragment in Preparation Example 1. Then, an antigen-antibody specific binding reaction of the ADEL-Y01m antibody was checked through western blotting.
(§4) First, the concentrations of the wild-type Tau protein and the Tau K280A protein were measured through Bradford Assay. Each of the proteins was mixed with 4× sample buffer (60 mM Tris-HCl [pH 6.8], 2% w/v SDS, 25% v/v glycerol, 14.4 mM v/v β-mercaptoethanol, and bromophenol blue). Thereafter, each protein was electrophoresed on an SDS-PAGE gel. Then, the electrophoresed gel was separated and transferred onto a PVDF membrane (BioRad, California, USA). Treatment with a blocking buffer (0.1% v/v Tween-20 [PBST], 3% w/v BSA, or 5% v/v skim milk in PBS buffer) was performed and reaction was allowed to proceed for 1 hour. Then, treatment with an anti-acetyl-lysine antibody (anti-acetyl-lysine, Cell Signaling, 9441) or ADEL-Y01m antibody as a primary antibody was performed and reaction was allowed to proceed at 4° C. overnight. The next day, the PVDF membrane was washed three times with a washing buffer (0.1% v/v Tween-20 [PBST] in PBS buffer), and then treated with HRP-labeled anti-mouse IgG antibody (Bioxcell, BE0083). The PVDF membrane was treated with a chemiluminescent reagent (Thermo Fisher Scientific). Then, measurement and analysis were performed using x-ray film and ImageJ software (NIH, Bethesda, Md.).
For orientation: Immunoblotting shows a protein as a band on a membrane.

The target in experiment [3] is T3, acetylated Tau K280A protein (human, UniProt P10636 2-758, acetylated in vitro with P300 enzyme and acetyl CoA; sites not stated).
T3 construct: Tau K280A acetylated in the same manner as the acetylated K18 fragment; also called Tau K280A (acetylated)
T3 sequence (P10636 other isoform, or with tags, fused parts or gaps K280A K280A limits assumed): as above
As to the kind of experiment: western blot. The method, then:
as §3, §4

The target of a further experiment is T4, Tau (Acetylation -).
T4 construct: also called non-Ac tau protein; non-acetylated wild type tau protein
T4 sequence (tau protein, as listed by the source): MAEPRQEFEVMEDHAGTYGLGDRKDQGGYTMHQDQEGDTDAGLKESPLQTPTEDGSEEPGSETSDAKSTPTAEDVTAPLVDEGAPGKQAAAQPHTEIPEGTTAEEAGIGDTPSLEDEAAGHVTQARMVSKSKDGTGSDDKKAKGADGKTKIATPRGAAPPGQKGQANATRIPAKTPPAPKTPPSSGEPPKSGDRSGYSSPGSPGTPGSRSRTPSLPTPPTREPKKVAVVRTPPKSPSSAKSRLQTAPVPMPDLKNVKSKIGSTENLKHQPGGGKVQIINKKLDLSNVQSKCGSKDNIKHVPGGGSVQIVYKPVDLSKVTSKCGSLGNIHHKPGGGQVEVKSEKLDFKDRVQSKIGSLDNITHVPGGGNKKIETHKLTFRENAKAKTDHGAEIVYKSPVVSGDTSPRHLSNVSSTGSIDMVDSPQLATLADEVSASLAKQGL
As to the kind of experiment: western blot. The protocol:
as §3, §4

Ends that are not written are not given here.

B1: ADEL-Y01m antibody (antibody, V domains shown)
VH: EVQLEESGPSLVKPSQTLSLTCSVTGDSITSGYWNWIRKFPGNKLEYMGYIRYSGRTYYNPSLKSRISITRDTSKNQFYLQLISVTTEDTATYYCASVYFTYWGQGTLVTVSS
VL: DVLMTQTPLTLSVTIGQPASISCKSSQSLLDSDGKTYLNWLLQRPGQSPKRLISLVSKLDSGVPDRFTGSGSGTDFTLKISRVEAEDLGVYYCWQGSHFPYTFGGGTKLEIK
notes: Mouse monoclonal antibody from a hybridoma; also called Y01m01; antibody produced from the #15E5 hybridoma cell line (clone #1)
As to B1, the Kd (in general, the equilibrium constant for the complex coming apart) with K280-ac protein fragment [1] is 0.257 nM. Also, in the experiment with K280-ac protein fragment [2], the koff – broadly, the rate constant with which the complex falls apart – was found to be 0.000157 s⁻¹. The kon (commonly the second-order rate constant of association) with K280-ac protein fragment [2] came to 447000 M⁻¹ s⁻¹. In addition, the binding result (with Tau K280A protein; in experiment [3]; in the experiment with Tau (Acetylation -)) was “no binding” in each case.
